From patent US20150225472A1 come the findings set out here.

The experiment has as its target Light chain of BDD-Factor VIII (FVIII: C light chain) expressed in Pichia pastoris GS115 (Homo sapiens (Human)) (UniProt P00451). Briefly: cell-based or functional assay.

Sequence of Light chain of BDD-Factor VIII (FVIII: C light chain) expressed in Pichia pastoris GS115 (Homo sapiens (Human)) (P00451 other isoform, or with tags, fused parts or gaps limits assumed): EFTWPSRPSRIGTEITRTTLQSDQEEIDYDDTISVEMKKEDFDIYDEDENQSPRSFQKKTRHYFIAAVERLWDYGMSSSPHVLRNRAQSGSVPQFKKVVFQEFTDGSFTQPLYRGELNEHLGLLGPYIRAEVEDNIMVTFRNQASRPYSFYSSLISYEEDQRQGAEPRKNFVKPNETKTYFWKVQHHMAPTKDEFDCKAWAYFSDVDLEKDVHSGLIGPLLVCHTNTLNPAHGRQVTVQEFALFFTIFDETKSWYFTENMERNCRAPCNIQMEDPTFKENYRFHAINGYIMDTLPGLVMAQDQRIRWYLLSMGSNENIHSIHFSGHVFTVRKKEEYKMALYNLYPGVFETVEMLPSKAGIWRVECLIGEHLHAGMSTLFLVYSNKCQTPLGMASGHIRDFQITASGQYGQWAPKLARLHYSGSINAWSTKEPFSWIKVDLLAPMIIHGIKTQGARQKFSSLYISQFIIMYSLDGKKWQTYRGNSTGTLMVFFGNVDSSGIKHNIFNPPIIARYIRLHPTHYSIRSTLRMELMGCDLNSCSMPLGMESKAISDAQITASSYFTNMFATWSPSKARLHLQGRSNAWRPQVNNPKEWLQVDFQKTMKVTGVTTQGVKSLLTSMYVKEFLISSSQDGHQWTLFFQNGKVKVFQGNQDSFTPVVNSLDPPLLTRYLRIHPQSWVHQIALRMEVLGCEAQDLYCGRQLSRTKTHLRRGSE

On to “Heavy chain of BDD-Factor VIII (FVIII: C heavy chain, A1 and A2 domains) expressed in Pichia pastoris GS115 (from UniProt P00451 20-759)”, for which the Specific Activity[IU/mg], chromogenic assay came to 7660 IU/mg and the Specific Activity[IU/mg], one stage clotting assay came out at 132 IU/mg.
